“Also recorded” adds a separate entry of the source.
Tests used:
[1] = system: MAP kinases and Akt; assay: Western analysis for MAP kinases and Akt in cardiomyocytes; type: cell-based, rat
Experimental: Phosphorylation of MAP kinases and Akt were detected by Western analysis as previously described (5). Membranes were incubated with primary antibodies overnight (phospho ERK1/2 diluted 1:1000; phospho SAPK/JNK diluted 1:500; phospho p38 MAPK diluted 1:500; phospho Akt (Ser473) diluted 1:1000). All antibodies were from Cell Signaling Technology, Inc. (Danvers, Mass.) and were sequentially detected with horseradish peroxidase-conjugated goat anti-rabbit IgG and enhanced chemiluminescence.
Western analyses were performed as described previously (45). Membranes were incubated with primary antibodies overnight (anti-p44/42MAPK diluted 1:500; phospho-p44/42MAPK (Thr202/Tyr204) 1:1000; phospho-JNK (Thr183/Tyr185) 1:500; p38MAPK 1:500; phospho-p38MAPK (Thr180/Tyr182) 1:500; phospho-Akt (Ser473) 1:1000 and phospho-IκBα 1:1000, all from Cell Signaling, anti-mouse ST2L, from R&D 1:1000 and anti-IL-33 as described above, 1:500) at 4° C., detected with horseradish peroxidase-conjugated antibodies and enhanced chemiluminescence.

[2] = system: NF-κB; assay: NF-κB nuclear binding activity by EMSA in cardiac fibroblasts; type: cell-based, rat; details: angiotensin-II 1 μM, phenylephrine 50 μM, IL-33 10 ng/ml
Experimental: Electromobility shift assays were performed as described previously (8). Cells were lysed for 10 minutes on ice in a solution containing 10 mM HEPES (pH 7.6), 15 mM KCl, 2 mM MgCl2, 0.1 mM ethylenediamine tetraacetic acid (EDTA), 1 mM dithiothreitol (DTT), 0.5 mM phenylmethylsulphonylfluoride (PMSF), 10 μg/mL leupeptin and 0.2% Nonident P-40. Dishes were gently scraped, and nuclei were collected by centrifugation at 800 g for 30 seconds and then suspended in a solution of 50 mM HEPES, 400 mM KCl, 0.1 mM EDTA, 10% glycerol, 1 mM DTT, 0.5 mM PMSF and 10 μg/mL leupeptin. The mixture was incubated on ice for 30 minutes, and the supernatant was collected after centrifugation for 15 minutes at 400 g. Binding reactions were performed with 5 or 10 μg of nuclear protein in 10 mM Tris, 1 mM DTT, 1 mM EDTA, 5% glycerol, 0.1% Triton X-100, 1 mg poly(dIdC), 5 μg bovine serum albumin (BSA) and approximately 10,000 cpm of −32P-labeled oligonucleotide. The binding reactions for AP-1 activity also contained 5 mM MgCl2. Control reaction mixtures contained a 100-fold excess of unlabeled oligonucleotide and were incubated with nuclear extracts of IL-1β-treated cells. DNA complexes were separated on a 4% nondenaturing polyacrylamide gel in Tris-HCl (6.7 mM), EDTA (1 mM) and ammonium acetate (3.3 mM). The oligonucleotides contained the NF-B binding site (sequence: 5′-AGTTGAGGGGACTTTCCCAGGC-3′ (SEQ ID NO: 15)) and were labeled by standard procedures.
EMSAs were performed as described previously (47). Cells were lysed for 10 minutes on ice in 10 mM HEPES (pH 7.6), 15 mM KCl, 2 mM MgCl2, 0.1 mM EDTA, 1 mM DTT, 0.5 mM PMSF, 10 μg/mL leupeptin, and 0.2% Nonident P-40. Dishes were gently scraped, and nuclei were collected by centrifugation at 800 g for 30 seconds and then suspended in a solution of 50 mM HEPES, 400 mM KCl, 0.1 mM EDTA, 10% glycerol, 1 mM DTT, 0.5 mM PMSF, and 10 μg/mL leupeptin. The mixture was incubated on ice for 30 minutes, and the supernatant was collected after centrifugation for 15 minutes at 400 g. […]

[3] = system: rat neonatal cardiomyocytes; assay: In vitro cell size measurement of cardiomyocytes; type: cell-based; details: with or without angiotensin-II (0.1 μM), IL-33 (10 ng/ml), anti-ST2 antibody (100 μg/ml)
Experimental: Sarcomeric α-actinin staining for cardiomyocytes and BrdUrd labeling for cardiac fibroblasts were performed as described previously (5). Mouse monoclonal antibody to sarcomeric α-actinin (EA-53, Sigma) was diluted 1:100 and used. For cardiomyocyte size, cells were visualized using an inverted fluorescent microscope (IX-70; Olympus), and the surface area of the cardiomyocytes was calculated with ImagePro Express software. Cells from randomly selected fields were analyzed.
Cell culture of rat neonatal cardiomyocytes and cardiac fibroblasts was performed as previously described (42, 43). Briefly, hearts from 1-3 day-old Sprague-Dawley rat neonates (Charles River) were digested with trypsin (1 mg/ml, GIBCO) and collagenase-II (0.8 mg/ml, Worthington), and plated on non-coated culture dishes for 1.5 hrs. Attached cells were further cultured with Dulbecco's Modified Essential Medium (GIBCO) containing 10% fetal bovine serum and used as cardiac fibroblasts after 2 passages. […]
Immunofluorescence staining on paraffin-embedded mice hearts or rat neonatal cardiomyocyte cell culture was performed as described previously (42, 45). […] For measuring cardiomyocyte size, the surface area of the cells was calculated with ImagePro Express software. Cells from randomly selected fields were analyzed.

B1: IL-33: recombinant mature rat IL-33, starting with amino acid 109 of the full-length protein, N-terminal His tag (GenBank BC081993) (protein)
chain: SIQGTSLLTESCALSTYNDQSVSFVLENGCYVINVEDCGKNQEKDKVLLRYYESSFPAQSGDGVDGKKLMVNMSPIKDTDIWLNANDKDYSVELQKGDVSPPDQAFFVLHKKSSDFVSFECKNLPGTYIGVKDNQLALVEENDESCNNIMFKLSKM
modifications: left off: small tags and cut ends
- phosphorylation of ERK, p38 and JNK MAP kinases ([1]; IL-33 (10 ng/ml) alone): increased phosphorylation of ERK, p38 and JNK MAP kinases; also recorded: generally modest compared with IL-1β; also recorded: activated all MAP kinases
- Akt activation ([1]; IL-33 alone): minimally activated Akt
- angiotensin-II-induced Akt activation ([1]; co-treatment with IL-33): did not impair angiotensin-II-induced Akt activation
- angiotensin-II-induced ERK phosphorylation ([1]; co-treatment with IL-33): did not affect ERK phosphorylation
- angiotensin-II-induced JNK phosphorylation ([1]; co-treatment with IL-33): decreased
- angiotensin-II-induced p38MAPK phosphorylation ([1]; co-treatment with IL-33): decreased
- NF-κB activation by agent alone [2]: independently activated NF-κB in both cell types
- cardiomyocyte cell size [3]: antihypertrophic effect of IL-33 was further confirmed

— US8147817B2, “IL-33 in the treatment and diagnosis of diseases and disorders” (The Brigham and Women's Hospital, Inc., priority 2006, dated 2012)
